# Data taken from article doi:10.1101/2022.11.20.517165.
# B1: Toc34 (natural protein)
# chain: MAQPPRPAEEYDDDVQEDEDELKEGELDDDESHEAASEGGEAAAGDEEAEDDEQDEEDGDEDSQPWAGLNRLPERDDMLDILNELRAEGRKQLTVLLLGKSSVGKSSLINSLLGEAVVRVQAFKLQADTDITTTVVRQVAVGNSEVDGFRLKLIDTCGLEDPEAGDTVNLGALSKIAEDVRGVGIDVVLYCDRLDLYRVDPLDKAIIDAISSTFGRGIWRRTVVALTHANLVQTPPGTDYDSFVNGRVRLIRGAVRGPLFFRPSLPVALVENSETCPVSSESGFRVLPDGEPWLVALVSQLVDMAAARRRPYKYHPRLSSKPSHRFRWLLPVAIAAEVLFYRRFLHPRLDDNQRRVEREEERVWALRGQQRRALGLHRPHRPDKDAAWRLEQMYDDD
# Experiments:
# [1] = biological target: Toc90 (Chlamydomonas reinhardtii); experiment: cryo-EM structure
# [2] = biological target: Toc75 (Chlamydomonas reinhardtii); experiment: cryo-EM structure
molecule,measurement,setting,value
Toc75 (natural protein),stoichiometry N,[1],1
B1,stoichiometry N,[2],1
